Key:
[1] = biological target: T1, GFP-CCT2 D3 (aa369-535 of CCT2) (human, UniProt P78371 369-535); assay: co-IP of GFP-tagged CCT2 variants with T7-LC3C in HEK293T
T1 construct: also called C-terminal one-third of CCT2; not shown: GFP tag
T1 sequence: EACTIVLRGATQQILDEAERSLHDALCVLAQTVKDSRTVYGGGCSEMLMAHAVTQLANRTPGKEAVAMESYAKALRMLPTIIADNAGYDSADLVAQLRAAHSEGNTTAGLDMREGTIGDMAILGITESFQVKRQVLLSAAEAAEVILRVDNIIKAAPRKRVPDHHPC
Description: The cells were permeabilized with digitonin before fixation. [0136] (G) Quantification of LC3 around Q103-HTT IB (mean±SEM) as shown in (F). […] [0137] […] The cells were permeabilized with digitonin before immunoblot analysis. LE, long exposure; SE, short exposure. [0138] (I) Quantification of normalized Q103-HTT (mean±SEM) in (H). […] [0139] […] The VLIR motif VIL is highlighted in red. [0140] […] The data are representative of three independent experiments. [0141] […] The cells were permeabilized with digitonin before fixation. [0142] (M) Quantification of LC3 around IBs (mean±SEM) as shown in (L). […] [0143] […] [0144] (O) Quantification of normalized Q103-HTT (mean±SEM) in (N).
Co-immunoprecipitation was performed essentially as described before. In brief, 24 h after transfection, the cells were collected and lysed on ice for 30 min in co-IP buffer (50 mM Tris/HCl pH 7.4, 150 mM NaCl, 1 mM EDTA, 0.5% NP40) with protease inhibitor mixture, and the lysates were cleared by centrifugation. The resulting supernatants were incubated with indicated agarose or magnetic beads and rotated at 4° C. for 3 h. The agarose was washed five times with co-IP buffer. As for the BFP-tagged Q103, the supernatants were incubated with rabbit anti-BFP antibodies and Protein A/G PLUS-Agarose according to the manufacturers' protocol. […]

[2] = biological target: T2, CCT2 D2-P7 fusion protein (Homo sapiens (Human), UniProt P78371 217-519); assay: co-IP
T2 construct: D2 domain of CCT2 fused to the P7 peptide of CCT2; also called HA-D2-P7; not shown: HA tag of plasmid pFUGW-HA-D2-P7
T2 sequence: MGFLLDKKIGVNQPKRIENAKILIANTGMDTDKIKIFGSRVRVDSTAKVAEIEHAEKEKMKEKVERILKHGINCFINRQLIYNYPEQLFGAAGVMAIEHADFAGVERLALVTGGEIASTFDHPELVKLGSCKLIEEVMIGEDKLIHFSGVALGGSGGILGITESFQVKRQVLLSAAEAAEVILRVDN
Description: Co-immunoprecipitation was performed essentially as described before. In brief, 24 h after transfection, the cells were collected and lysed on ice for 30 min in co-IP buffer (50 mM Tris/HCl pH 7.4, 150 mM NaCl, 1 mM EDTA, 0.5% NP40) with protease inhibitor mixture, and the lysates were cleared by centrifugation. The resulting supernatants were incubated with indicated agarose or magnetic beads and rotated at 4° C. for 3 h. The agarose was washed five times with co-IP buffer. As for the BFP-tagged Q103, the supernatants were incubated with rabbit anti-BFP antibodies and Protein A/G PLUS-Agarose according to the manufacturers' protocol. After washing, 2×SDS loading buffer was added to the beads, and immunoblot was performed as described previously.

binding result [1]: binds
binding result [2]: binds
B1: T7-LC3C (expressed in cells) (other, UniProt Q9BXW4 1-126, looked up)
chain: MPPPQKIPSVRPFKQRKSLAIRQEEVAGIRAKFPNKIPVVVERYPRETFLPPLDKTKFLVPQELTMTQFLSIIRSRMVLRATEAFYLLVNNKSLVSMSATMAEIYRDYKDEDGFVYMTYASQETFG
notes: Expressed from pCDNA3-T7-LC3C; not shown: T7 tag
